# Laboratory results from publication PMC6979384, “Characterization of the plant homeodomain (PHD) reader family for their histone tail interactions” (Epigenetics & Chromatin, 2020).
# B1: PHRF1 (RP): GST-tagged RING + PHD, 90-250 (protein)
# chain: QGKLEAAGSFNSDDDAESCPICLNAFRDQAVGTPENCAHYFCLDCIVEWSKNANSCPVDRTLFKCICIRAQFGGKILRKIPVENTKASEEEEDPTFCEVCGRSDREDRLLLCDGCDAGYHMECLDPPLQEVPVDEWFCPECAAPGVVLAADAGPVSEEEVS
# modifications: GST tag
# B2: CHD5 (PPCC): GST-tagged Dual PHD + Dual Chromo, 330-670 (protein)
# chain: KRIDDGDGYETDHQDYCEVCQQGGEIILCDTCPRAYHLVCLDPELEKAPEGKWSCPHCEKEGIQWEPKDDDDEEEEGGCEEEEDDHMEFCRVCKDGGELLCCDACPSSYHLHCLNPPLPEIPNGEWLCPRCTCPPLKGKVQRILHWRWTEPPAPFMVGLPGPDVEPSLPPPKPLEGIPEREFFVKWAGLSYWHCSWVKELQLELYHTVMYRNYQRKNDMDEPPPFDYGSGDEDGKSEKRKNKDPLYAKMEERFYRYGIKPEWMMIHRILNHSFDKKGDVHYLIKWKDLPYDQCTWEIDDIDIPYYDNLKQAYWGHRELMLGEDTRLPKRLLKKGKKLRDDK
# modifications: GST tag
# B3: DPF2 (PPC2W2): GST-tagged Dual PHD + C2W2 finger, 190-391 (protein)
# chain: VGSARKKLDASILEDRDKPYACDICGKRYKNRPGLSYHYAHSHLAEEEGEDKEDSQPPTPVSQRSEEQKSKKGPDGLALPNNYCDFCLGDSKINKKTGQPEELVSCSDCGRSGHPSCLQFTPVMMAAVKTYRWQCIECKCCNICGTSENDDQLLFCDDCDRGYHMYCLTPSMSEPPEGSWSCHLCLDLLKEKASIYQNQNSS
# modifications: GST tag
# B4: CHD4 (PPCC): GST-tagged Dual PHD + Dual Chromo, 350-710 (protein)
# chain: KKKKKGEEEVTAVDGYETDHQDYCEVCQQGGEIILCDTCPRAYHMVCLDPDMEKAPEGKWSCPHCEKEGIQWEAKEDNSEGEEILEEVGGDLEEEDDHHMEFCRVCKDGGELLCCDTCPSSYHIHCLNPPLPEIPNGEWLCPRCTCPALKGKVQKILIWKWGQPPSPTPVPRPPDADPNTPSPKPLEGRPERQFFVKWQGMSYWHCSWVSELQLELHCQVMFRNYQRKNDMDEPPSGDFGGDEEKSRKRKNKDPKFAEMEERFYRYGIKPEWMMIHRILNHSVDKKGHVHYLIKWRDLPYDQASWESEDVEIQDYDLFKQSYWNHRELMRGEEGRPGKKLKKVKLRKLERPPETPTVDPTV
# modifications: GST tag
# B5: TRIM66 (PB): GST-tagged PHD + Bromo, 966-1216 (protein)
# chain: APIENEDFCAVCLNGGELLCCDRCPKVFHLSCHVPALLSFPGGEWVCTLCRSLTQPEMEYDCENACYNQPGMRASPGLSMYDQKKCEKLVLSLCCNNLSLPFHEPVSPLARHYYQIIKRPMDLSIIRRKLQKKDPAHYTTPEEVVSDVRLMFWNCAKFNYPDSEVAEAGRCLEVFF
# modifications: GST tag
# Assay: dCypher AlphaScreen Phase A, optimal reader concentration range
# Assay type: binding
# Conditions: 100 nM biotinylated peptide; 30 min + 60 min at 23 °C; AlphaLISA; n = 2
# Procedure: Fig. 3 dCypher histone peptide-binding assays define the PTM recognition preference of PHD proteins with high sensitivity. a–h Binding curves to determine optimal reader protein concentration for full peptide library screening on the dCypher® AlphaScreen® platform (see “Methods”). X-axes are log(protein concentration (M)) at constant peptide concentration (100 nM); Y-axes are AlphaScreen counts, representing relative strength of binding (n = 2; error bars are S.D.). i Heat map represents relative binding to H3 N-terminal peptides (left) by PHD-containing GST-tagged proteins (top) using the dCypher AlphaScreen platform. Protein concentrations can be found in Additional file 5: Table S4. Binding strength is indicated by color gradient from green to yellow (stronger to weaker). The asterisk (*) by MLL5 signifies its general preference for H3K4 methylation. Alpha counts (n = 2) were normalized individually for each protein to the highest signal for each respective assay. For full dCypher peptide screen data, see Additional file 4: Table S3
# We next employed a highly sensitive proximity-based AlphaScreen histone peptide assay (dCypher®) to provide a third and orthogonal approach to analyzing the histone binding preferences for a subset of the 31 PHD proteins with respect to various histone tail PTMs. In this assay, biotinylated peptides are bound to streptavidin “donor” beads and the GST-tagged reader domains bound to Glutathione “acceptor” beads. The donor beads are excited by 680 nm light, releasing a singlet oxygen which causes light emission (520–570 nm) in proximal acceptor beads (within 200 nm); emission intensity is then correlated to binding strength. […] Additionally, we examined several well characterized PHD–PTM interactors [DIDO1, KDM7A, and DPF2 (PPC2W2)] for positive controls and to provide a benchmark. Initial binding assays were conducted for each fusion protein using three peptides [H3 (1–20) with K4me0, H3K4me3 or H3K9me3] to determine the optimal reader domain concentration for full peptide library studies (Fig. 3a–h; Additional file 4: Table S3 and Additional file 5: Table S4). This is an important first step as signal often declined after query protein saturation (the ‘hook point’, caused by excess free query competing with bead bound).
# The dCypher peptide screen assay was performed as previously described. Briefly, 5 μL of GST-tagged reader domains (optimal protein concentration for library screening determined by initial binding curves to candidate peptides) were incubated with 5 μL of 400 nM (100 nM Final) biotinylated histone peptides (EpiCypher) for 30 min at 23 °C in 1× AlphaLISA Epigenetics buffer + epigenetics buffer supplement (PerkinElmer, AL1008) in a 384-well plate. […] Plates were incubated at 23 °C in subdued lighting for 60 min and AlphaLISA signal measured on a PerkinElmer 2104 EnVision (680 nm laser excitation, 570 nm emission filter ± 50 nm bandwidth).
# Supplementary file 13072_2020_328_MOESM4_ESM.xlsx: Additional file 4: Table S3. dCypher Results. Excel Tab Peptide Phase A is a compiled set of binding data: chromatin reader titration vs. several peptide targets. […] Excel Tab Peptide Phase B is a compiled set of binding data: chromatin reader at optimized concentrations vs. entire 293 peptide library. […]
row,Molecule,Phase A Optimal Range (reader concentration)
1,B1,5 to 30 nM
2,B2,1 to 35 nM
3,B3,0.05 to 1 nM
4,B4,0.45 to 10 nM
5,B5,0.5 to 10 nM
